Measured values from paper PMC5148762.

Molecular target: protein G B1
Experiment: quartz crystal microbalance with dissipation monitoring (QCM-D); protein G B1 adsorbed from 5 ug/ml in PBS onto polystyrene-coated gold quartz sensors, rinsed, then IgG flowed at 5 ug/ml in PBS, 150 ul/min, pH 7.4, 22 °C; mass by the Sauerbrey equation

Sauerbrey mass bound: 350 ng/cm^2
Substance: IgG antibody
